Measured values: US7183387 (Genentech, dated 2007)

T1: human FcγRIIA-R131 α subunit extracellular domain-6His-GST fusion (human, UniProt P12318 34-217)
T1 construct: also called FcγRIIA-Arg131; not shown: glutathione S-transferase (GST)
T1 sequence: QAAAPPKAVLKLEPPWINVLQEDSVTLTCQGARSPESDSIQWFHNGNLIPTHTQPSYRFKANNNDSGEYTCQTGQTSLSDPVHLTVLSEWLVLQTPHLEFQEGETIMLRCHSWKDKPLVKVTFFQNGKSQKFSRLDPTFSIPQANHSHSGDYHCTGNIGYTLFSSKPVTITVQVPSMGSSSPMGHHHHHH

T2: human FcγRIIB α subunit extracellular domain-6His-GST fusion (human, UniProt P31994 43-217)
T2 construct: not shown: glutathione S-transferase (GST)
T2 sequence: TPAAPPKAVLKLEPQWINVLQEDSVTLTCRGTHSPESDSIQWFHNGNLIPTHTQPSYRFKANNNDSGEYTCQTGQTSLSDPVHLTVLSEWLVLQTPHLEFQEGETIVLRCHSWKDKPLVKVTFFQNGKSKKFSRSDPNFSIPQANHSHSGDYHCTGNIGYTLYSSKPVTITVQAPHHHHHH


Experiments:
[1] = biological target: T3, human neonatal Fc receptor (FcRn), biotinylated (human, UniProt P55899 24-297; P61769 21-119, biotinylated (biotin-X-NHS)); assay: FcRn ELISA, pH 6.0
T3 construct: captured on streptavidin plates
T3 sequence (P55899 24-297 limits assumed, chain 1 of 2): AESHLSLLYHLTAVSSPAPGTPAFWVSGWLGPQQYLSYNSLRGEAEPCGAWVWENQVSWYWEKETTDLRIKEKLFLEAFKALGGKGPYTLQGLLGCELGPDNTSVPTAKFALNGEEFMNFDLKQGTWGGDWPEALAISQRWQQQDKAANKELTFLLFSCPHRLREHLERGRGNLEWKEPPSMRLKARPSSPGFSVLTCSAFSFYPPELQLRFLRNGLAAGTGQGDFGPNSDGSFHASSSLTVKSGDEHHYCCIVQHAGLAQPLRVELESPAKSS
T3 sequence (P61769 21-119 limits assumed, chain 2 of 2): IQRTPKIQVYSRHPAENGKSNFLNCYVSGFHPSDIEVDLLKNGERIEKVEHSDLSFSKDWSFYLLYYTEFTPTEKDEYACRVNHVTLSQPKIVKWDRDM
Procedure: (§1) FcRn Binding ELISA: For measuring FcRn binding activity of IgG variants, ELISA plates were coated with 2 µg/ml streptavidin (Zymed, South San Francisco) in 50 mM carbonate buffer, pH 9.6, at 4° C. overnight and blocked with PBS-0.5% BSA, pH 7.2 at room temperature for one hour. Biotinylated FcRn (prepared using biotin-X-NHS from Research Organics, Cleveland, Ohio and used at 1–2 µg/ml) in PBS-0.5% BSA, 0.05% polysorbate 20, pH 7.2, was added to the plate and incubated for one hour. Two fold serial dilutions of IgG standard (1.6–100 ng/ml) or variants in PBS-0.5% BSA, 0.05% polysorbate 20, pH 6.0, were added to the plate and incubated for two hours. Bound IgG was detected using peroxidase labeled goat F(ab')_2 anti-human IgG F(ab')_2 in the above pH 6.0 buffer (Jackson ImmunoResearch, West Grove, Pa.) followed by 3,3',5,5'-tetramethyl benzidine (Kirgaard & Perry Laboratories) as the substrate. Plates were washed between steps with PBS-0.05% TWEEN 20® at either pH 7.2 or 6.0. Absorbance was read at 450 nm on a Vmax plate reader (Molecular Devices, Menlo Park, Calif.). Titration curves were fit with a four-parameter nonlinear regression curve-fitting program (KaleidaGraph, Synergy software, Reading, Pa.). Concentrations of IgG variants corresponding to the mid-point absorbance of the titration curve of the standard were calculated and then divided by the concentration of the standard corresponding to the mid-point absorbance of the standard titration curve.

human FcRn, biotinylated = biological target: T4, human FcRn, biotinylated (human, UniProt P55899 24-297; P61769 21-119, biotinylated (biotin-X-NHS)); assay: ELISA, biotin-FcRn on streptavidin, pH 6.0
T4 construct: Captured on streptavidin plates; IgG added at pH 6.0; also called neonatal Fc receptor
T4 sequence (P55899 24-297 limits assumed, chain 1 of 2): as the sequence (P55899 24-297 limits assumed, chain 1 of 2) above
T4 sequence (P61769 21-119 limits assumed, chain 2 of 2): as the sequence (P61769 21-119 limits assumed, chain 2 of 2) above
Procedure: as §1

[2] = biological target: T1, human FcγRIIA-R131 α subunit …; assay: ELISA, IgG:IgE hexamers on receptor-GST
[3] = biological target: T5, human FcγRIIIA-F158 α subunit extracellular domain-6His-GST fusion (human, UniProt P08637 17-208); assay: ELISA, IgG:IgE hexamers on receptor-GST
T5 construct: also called FcγRIIIA-Phe158; not shown: glutathione S-transferase (GST)
T5 sequence (P08637 other isoform, or with tags, fused parts or gaps, form in doubt): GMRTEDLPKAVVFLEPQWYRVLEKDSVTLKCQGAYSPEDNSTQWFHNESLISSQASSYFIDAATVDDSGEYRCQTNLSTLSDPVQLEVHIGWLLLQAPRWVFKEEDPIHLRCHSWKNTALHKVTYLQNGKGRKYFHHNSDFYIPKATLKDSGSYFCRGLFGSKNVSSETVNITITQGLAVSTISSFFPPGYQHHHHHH

[4] = biological target: T2, human FcγRIIB α subunit extracellular …; assay: ELISA, IgG:IgE hexamers on receptor-GST

Row | Binder | fold better binding than native IgG1 [1] [fold] | ratio to native IgG1 (human FcRn, biotinylated) | ratio to native IgG1 [2] | ratio to native IgG1 [3] | ratio to native IgG1 [4]
1 | anti-IgE E27 IgG1 Glu380Ala/Asn434Ala (antibody) heavy: not shown light: DIQLTQSPSSLSASVGDRVTITCRASKPVDGEGDSYLNWYQQKPGKAPKLLIYAASYLESGVPSRFSGSGSGTDFTLTISSLQPEDFATYYCQQSHEDPYTFGQGTKVEIKRTVAAPSVFIFPPSDEQLKSGTASVVCLLNNFYPREAKVQWKVDNALQSGNSQESVTEQDSKDSTYSLSSTLTLSKADYEKHKVYACEVTHQGLSSPVTKSFNRGEC | > 8 | – | – | – | –
2 | anti-IgE E27 IgG1 Thr307Ala/Glu380Ala/Asn434Ala (antibody) heavy: EVQLVESGGGLVQPGGSLRLSCAVSGYSITSGYSWNWIRQAPGKGLEWVASIKYSGETKYNPSVKGRITISRDDSKNTFYLQMNSLRAEDTAVYYCARGSHYFGHWHFAVWGQGTLVTVSSASTKGPSVFPLAPSSKSTSGGTAALGCLVKDYFPEPVTVSWNSGALTSGVHTFPAVLQSSGLYSLSSVVTVPSSSLGTQTYICNVNHKPSNTKVDKKVEPKSCDKTHTCPPCPAPELLGGPSVFLFPPKPKDTLMISRTPEVTCVVVDVSHEDPEVKFNWYVDGVEVHNAKTKPREEQYNSTYRVVSVLAVLHQDWLNGKEYKCKVSNKALPAPIEKTISKAKGQPREPQVYTLPPSREEMTKNQVSLTCLVKGFYPSDIAVAWESNGQPENNYKTTPPVLDSDGSFFLYSKLTVDKSRWQQGNVFSCSVMHEALHAHYTQKSLSLSPGK light: DIQLTQSPSSLSASVGDRVTITCRASKPVDGEGDSYLNWYQQKPGKAPKLLIYAASYLESGVPSRFSGSGSGTDFTLTISSLQPEDFATYYCQQSHEDPYTFGQGTKVEIKRTVAAPSVFIFPPSDEQLKSGTASVVCLLNNFYPREAKVQWKVDNALQSGNSQESVTEQDSKDSTYSLSSTLTLSKADYEKHKVYACEVTHQGLSSPVTKSFNRGEC | 13 | – | – | – | –
3 | E27 IgG1 variant E380(405)A/N434(465)A/T307(326)A (antibody, also called IG2 270) heavy: EVQLVESGGGLVQPGGSLRLSCAVSGYSITSGYSWNWIRQAPGKGLEWVASIKYSGETKYNPSVKGRITISRDDSKNTFYLQMNSLRAEDTAVYYCARGSHYFGHWHFAVWGQGTLVTVSSASTKGPSVFPLAPSSKSTSGGTAALGCLVKDYFPEPVTVSWNSGALTSGVHTFPAVLQSSGLYSLSSVVTVPSSSLGTQTYICNVNHKPSNTKVDKKVEPKSCDKTHTCPPCPAPELLGGPSVFLFPPKPKDTLMISRTPEVTCVVVDVSHEDPEVKFNWYVDGVEVHNAKTKPREEQYNSTYRVVSVLAVLHQDWLNGKEYKCKVSNKALPAPIEKTISKAKGQPREPQVYTLPPSREEMTKNQVSLTCLVKGFYPSDIAVAWESNGQPENNYKTTPPVLDSDGSFFLYSKLTVDKSRWQQGNVFSCSVMHEALHAHYTQKSLSLSPGK light: DIQLTQSPSSLSASVGDRVTITCRASKPVDGEGDSYLNWYQQKPGKAPKLLIYAASYLESGVPSRFSGSGSGTDFTLTISSLQPEDFATYYCQQSHEDPYTFGQGTKVEIKRTVAAPSVFIFPPSDEQLKSGTASVVCLLNNFYPREAKVQWKVDNALQSGNSQESVTEQDSKDSTYSLSSTLTLSKADYEKHKVYACEVTHQGLSSPVTKSFNRGEC | – | 11.8 | 0.99 | 0.96 | 0.99
4 | E27 IgG1 variant H434(465)A/K288(305)A (antibody, also called IG2 272; Lys288Ala/Asn434Ala) heavy: not shown light: DIQLTQSPSSLSASVGDRVTITCRASKPVDGEGDSYLNWYQQKPGKAPKLLIYAASYLESGVPSRFSGSGSGTDFTLTISSLQPEDFATYYCQQSHEDPYTFGQGTKVEIKRTVAAPSVFIFPPSDEQLKSGTASVVCLLNNFYPREAKVQWKVDNALQSGNSQESVTEQDSKDSTYSLSSTLTLSKADYEKHKVYACEVTHQGLSSPVTKSFNRGEC | – | 2.9 | 0.94 | 0.88 | 0.96
